# From article PMC4692527
# Key:
# [1] = biological target: FvTox1 in the pLexA vector (LexA fusion) (Fusarium virguliforme); assay: two-hybrid; LexA two-hybrid system, yeast EGY48 [pSH18-34]; FvTox1 in pLexA, peptides in pB42AD; reporters LacZ and LEU2; quantitative β-galactosidase activity (Miller units), three biological replications
# [2] = biological target: GST-tagged FvTox1 (Fusarium virguliforme); assay: pull-down; purified His-tagged peptides/fusion proteins mixed with GST-tagged FvTox1, pulled down with glutathione resin; western blot with anti-His antibody; relative percent pulled down, two independent experiments
Molecule,β-galactosidase activity [1],percent peptide pulled down by FvTox1 (relative binding strength) [2]
"soybean GmGD1, a glycine cleavage protein (natural protein)",5.79 Miller units,–
"soybean GmTRX3, a thioredoxin protein (natural protein)",9.64 Miller units,–
"synthetic FvTox1-interacting fusion peptide 6 (PEP3-PEP4; His-tagged, expressed in E. coli) (designed binder) GGGSGGGGSGGGGSHEGAWHNYARSVGGGGSELGGGGSGGGGSGGGGSSNGRVADGGGGS",–,8.8 percent
synthetic FvTox1-interacting fusion peptide 6 in pB42AD (no flanking cysteines) (designed binder) GGGSGGGGSGGGGSHEGAWHNYARSVGGGGSELGGGGSGGGGSGGGGSSNGRVADGGGGS,5.32 Miller units,–
"synthetic FvTox1-interacting fusion peptide 9 (PEP1-PEP2-PEP3-PEP4; His-tagged, expressed in E. coli) (designed binder) GGGGSGGGGSGGGGSSYLPETIYEYRLGGGGSELGGGGSGGGGSGGGGSVENKTRYHDREVGGGGSLEGGGGSGGGGSGGGGSHEGAWHNYARSVGGGGSGTGGGGSGGGGSGGGGSSNGRVADGGGGS",–,47 percent
synthetic FvTox1-interacting fusion peptide 9 in pB42AD (no flanking cysteines) (designed binder) GGGGSGGGGSGGGGSSYLPETIYEYRLGGGGSELGGGGSGGGGSGGGGSVENKTRYHDREVGGGGSLEGGGGSGGGGSGGGGSHEGAWHNYARSVGGGGSGTGGGGSGGGGSGGGGSSNGRVADGGGGS,5.64 Miller units,–
"synthetic FvTox1-interacting fusion peptide 8 (PEP1-PEP2-PEP4; His-tagged, expressed in E. coli) (designed binder) GGGGSGGGGSGGGGSSYLPETIYEYRLGGGGSELGGGGSGGGGSGGGGSVENKTRYHDREVGGGGSLEGGGGSGGGGSGGGGSSNGRVADGGGGS",–,26 percent
synthetic FvTox1-interacting fusion peptide 8 in pB42AD (no flanking cysteines) (designed binder) GGGGSGGGGSGGGGSSYLPETIYEYRLGGGGSELGGGGSGGGGSGGGGSVENKTRYHDREVGGGGSLEGGGGSGGGGSGGGGSSNGRVADGGGGS,3.35 Miller units,–
"GGGGSGGGGSGGGGSVENKTRYHDREVGGGGS [synthetic FvTox1-interacting peptide 2 (His-tagged, expressed in E. coli)]",–,5.5 percent
GGGGSGGGGSGGGGSVENKTRYHDREVGGGGS [synthetic FvTox1-interacting peptide 2 in pB42AD (no flanking cysteines)],5.88 Miller units,–
"synthetic FvTox1-interacting fusion peptide 5 (PEP1-PEP2; His-tagged, expressed in E. coli) (designed binder) GGGGSGGGGSGGGGSSYLPETIYEYRLGGGGSELGGGGSGGGGSGGGGSVENKTRYHDREVGGGGS",–,31.8 percent
synthetic FvTox1-interacting fusion peptide 5 in pB42AD (no flanking cysteines) (designed binder) GGGGSGGGGSGGGGSSYLPETIYEYRLGGGGSELGGGGSGGGGSGGGGSVENKTRYHDREVGGGGS,3.11 Miller units,–
"GGGGSGGGGSGGGGSHEGAWHNYARSVGGGGS [synthetic FvTox1-interacting peptide 3 (His-tagged, expressed in E. coli)]",–,2.7 percent
GGGGSGGGGSGGGGSHEGAWHNYARSVGGGGS [synthetic FvTox1-interacting peptide 3 in pB42AD (no flanking cysteines)],5.87 Miller units,–
GGGGSGGGGSGGGGSSYLPETIYEYRLGGGGS [synthetic FvTox1-interacting peptide 1 in pB42AD (no flanking cysteines)],6.59 Miller units,–
"GGGGSGGGGSGGGGSSYLPETIYEYRLGGGGS [synthetic FvTox1-interacting peptide 1 (His-tagged, expressed in E. coli)]",–,3.9 percent
"GGGGSGGGGSGGGGSSNGRVADGGGGS [synthetic FvTox1-interacting peptide 4 (His-tagged, expressed in E. coli)]",–,2.3 percent
"synthetic FvTox1-interacting fusion peptide 7 (PEP1-PEP2-PEP3; His-tagged, expressed in E. coli) (designed binder) GSGGGGSGGGGSGGGGSSYLPETIYEYRLGGGGSELGGGGSGGGGSGGGGSVENKTRYHDREVGGGGSLEGGGGSGGGGSGGGGSHEGAWHNYARSVGGGGS",–,38.5 percent
synthetic FvTox1-interacting fusion peptide 7 in pB42AD (no flanking cysteines) (designed binder) GSGGGGSGGGGSGGGGSSYLPETIYEYRLGGGGSELGGGGSGGGGSGGGGSVENKTRYHDREVGGGGSLEGGGGSGGGGSGGGGSHEGAWHNYARSVGGGGS,6.12 Miller units,–
GGGGSGGGGSGGGGSSNGRVADGGGGS [synthetic FvTox1-interacting peptide 4 in pB42AD (no flanking cysteines)],6.45 Miller units,–
